Measured values reported in patent US20120122239A1.

Tests used:
[1] = target: glycosylated human proBNP (HyTest, Turku, Finland; Catalog No. 8GOB2) (human); test: sandwich CMIA, capture 15C4, analyte 43.3 pM
[2] = target: human NT-pro B-type natriuretic peptide (HyTest, Turku, Finland; Catalog No. 8NT1) (human); test: sandwich CMIA, capture 15C4, analyte 43.3 pM
[3] = target: human pro B-type natriuretic peptide (HyTest, Turku, Finland; Catalog No. 8PRO8) (human); test: sandwich CMIA, capture 15C4, analyte 43.3 pM
[4] = target: glycosylated human proBNP (HyTest, Turku, Finland; Catalog No. 8GOB2) (human); test: sandwich CMIA, capture 15C4, analyte 86.6 pM
[5] = target: human NT-pro B-type natriuretic peptide (HyTest, Turku, Finland; Catalog No. 8NT1) (human); test: sandwich CMIA, capture 15C4, analyte 86.6 pM
[6] = target: human pro B-type natriuretic peptide (HyTest, Turku, Finland; Catalog No. 8PRO8) (human); test: sandwich CMIA, capture 15C4, analyte 86.6 pM
[7] = target: human NT-pro B-type natriuretic peptide (HyTest, Turku, Finland; Catalog No. 8NT1) (human); test: sandwich CMIA, capture 15F11, analyte 43.3 pM
[8] = target: glycosylated human proBNP (HyTest, Turku, Finland; Catalog No. 8GOB2) (human); test: sandwich CMIA, capture 15F11, analyte 86.6 pM
[9] = target: human NT-pro B-type natriuretic peptide (HyTest, Turku, Finland; Catalog No. 8NT1) (human); test: sandwich CMIA, capture 15F11, analyte 86.6 pM
[10] = target: human pro B-type natriuretic peptide (HyTest, Turku, Finland; Catalog No. 8PRO8) (human); test: sandwich CMIA, capture 15F11, analyte 86.6 pM
[11] = target: glycosylated human proBNP (HyTest, Turku, Finland; Catalog No. 8GOB2) (human); test: sandwich CMIA, capture 15C4, analyte 577.4 pM
[12] = target: human NT-pro B-type natriuretic peptide (HyTest, Turku, Finland; Catalog No. 8NT1) (human); test: sandwich CMIA, capture 15C4, analyte 577.4 pM
[13] = target: human pro B-type natriuretic peptide (HyTest, Turku, Finland; Catalog No. 8PRO8) (human); test: sandwich CMIA, capture 15C4, analyte 577.4 pM
[14] = target: glycosylated human proBNP (HyTest, Turku, Finland; Catalog No. 8GOB2) (human); test: sandwich CMIA, capture 15F11, analyte 288.7 pM
[15] = target: human NT-pro B-type natriuretic peptide (HyTest, Turku, Finland; Catalog No. 8NT1) (human); test: sandwich CMIA, capture 15F11, analyte 288.7 pM
[16] = target: human pro B-type natriuretic peptide (HyTest, Turku, Finland; Catalog No. 8PRO8) (human); test: sandwich CMIA, capture 15F11, analyte 288.7 pM
[17] = target: glycosylated human proBNP (HyTest, Turku, Finland; Catalog No. 8GOB2) (human); test: sandwich CMIA, capture 15F11, analyte 577.4 pM
[18] = target: human NT-pro B-type natriuretic peptide (HyTest, Turku, Finland; Catalog No. 8NT1) (human); test: sandwich CMIA, capture 15F11, analyte 577.4 pM
[19] = target: human pro B-type natriuretic peptide (HyTest, Turku, Finland; Catalog No. 8PRO8) (human); test: sandwich CMIA, capture 15F11, analyte 577.4 pM
[20] = target: glycosylated human proBNP (HyTest, Turku, Finland; Catalog No. 8GOB2) (human); test: sandwich CMIA, capture 15F11, analyte 0.0 pM (blank)
[21] = target: human NT-pro B-type natriuretic peptide (HyTest, Turku, Finland; Catalog No. 8NT1) (human); test: as above
[22] = target: human pro B-type natriuretic peptide (HyTest, Turku, Finland; Catalog No. 8PRO8) (human); test: as above
[23] = target: glycosylated human proBNP (HyTest, Turku, Finland; Catalog No. 8GOB2) (human); test: sandwich CMIA, capture 15C4, 43.3 pM, against human NT-proBNP
[24] = target: human pro B-type natriuretic peptide (HyTest, Turku, Finland; Catalog No. 8PRO8) (human); test: as above
[25] = target: glycosylated human proBNP (HyTest, Turku, Finland; Catalog No. 8GOB2) (human); test: sandwich CMIA, capture 15C4, 288.7 pM, against human NT-proBNP
[26] = target: human pro B-type natriuretic peptide (HyTest, Turku, Finland; Catalog No. 8PRO8) (human); test: as above
[27] = target: glycosylated human proBNP (HyTest, Turku, Finland; Catalog No. 8GOB2) (human); test: sandwich CMIA, capture 15F11, 43.3 pM, against human NT-proBNP
[28] = target: human pro B-type natriuretic peptide (HyTest, Turku, Finland; Catalog No. 8PRO8) (human); test: as above
[29] = target: glycosylated human proBNP (HyTest, Turku, Finland; Catalog No. 8GOB2) (human); test: sandwich CMIA, capture 15F11, 86.6 pM, against human NT-proBNP
[30] = target: human pro B-type natriuretic peptide (HyTest, Turku, Finland; Catalog No. 8PRO8) (human); test: as above
[31] = target: glycosylated human proBNP (HyTest, Turku, Finland; Catalog No. 8GOB2) (human); test: sandwich CMIA, capture 15F11, 288.7 pM, against human NT-proBNP
[32] = target: human pro B-type natriuretic peptide (HyTest, Turku, Finland; Catalog No. 8PRO8) (human); test: as above
[33] = target: glycosylated human proBNP (HyTest, Turku, Finland; Catalog No. 8GOB2) (human); test: sandwich CMIA, capture 15F11, 577.4 pM, against human NT-proBNP
[34] = target: human pro B-type natriuretic peptide (HyTest, Turku, Finland; Catalog No. 8PRO8) (human); test: as above

Sequence of human NT-pro B-type natriuretic peptide (HyTest, Turku, Finland; Catalog No. 8NT1) (human) (chain, as listed by the source): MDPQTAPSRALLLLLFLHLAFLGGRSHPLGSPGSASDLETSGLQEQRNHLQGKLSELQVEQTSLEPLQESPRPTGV
Sequence of glycosylated human proBNP (HyTest, Turku, Finland; Catalog No. 8GOB2) (human) (chain, as listed by the source): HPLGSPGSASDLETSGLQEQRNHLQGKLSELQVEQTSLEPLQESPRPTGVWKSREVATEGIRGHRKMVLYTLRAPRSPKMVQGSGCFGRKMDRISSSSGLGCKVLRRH

- Analyte rlus [1]: 877 rlus
- Analyte rlus [2]: 8870 rlus
- Analyte rlus [3]: 2170 rlus
- Analyte rlus [4]: 1020 rlus
- Analyte rlus [5]: 19300 rlus
- Analyte rlus [6]: 3830 rlus
- Analyte rlus [7]: 1990 rlus
- Analyte rlus [8]: 4470 rlus
- Analyte rlus [9]: 3540 rlus
- Analyte rlus [10]: 2210 rlus
- Analyte rlus [11]: 1420 rlus
- Analyte rlus [12]: 180000 rlus
- Analyte rlus [13]: 25900 rlus
- Analyte rlus [14]: 16400 rlus
- Analyte rlus [15]: 14600 rlus
- Analyte rlus [16]: 6140 rlus
- Analyte rlus [17]: 38700 rlus
- Analyte rlus [18]: 33900 rlus
- Analyte rlus [19]: 11400 rlus
- Analyte rlus [20]: 912 rlus
- Analyte rlus [21]: 912 rlus
- Analyte rlus [22]: 912 rlus
- % Cross-reactivity [23]: -0.2%
- % Cross-reactivity [24]: 16%
- % Cross-reactivity [25]: 0.4%
- % Cross-reactivity [26]: 13.7%
- % Cross-reactivity [27]: 132%
- % Cross-reactivity [28]: 61.2%
- % Cross-reactivity [29]: 136%
- % Cross-reactivity [30]: 49.3%
- % Cross-reactivity [31]: 113%
- % Cross-reactivity [32]: 38.3%
- % Cross-reactivity [33]: 115%
- % Cross-reactivity [34]: 31.8%
Substance: anti-human NT-proBNP/anti-human proBNP labeled monoclonal antibody 29D12 (HyTest, Turku, Finland)
